Data: the supplement of paper PMC10567573

B1: INTS4 (parent)
chain: AKQIMEETYKMEFMYSGVENKQVV

Variants of: B1
Assay: protein stability index of a GFP-peptide fusion (GPS, HEK-293T) (PSI 1-6); higher = more stable
Settings: c terminus: a fixed tail appended
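Also: lentivirally expressed fusions sorted by FACS into six bins by GFP to DsRed ratio, PSI derived from sequencing read proportions per bin multiplied by bin number.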

Protein stability index of substitutions, site by site:
N20: L 1.29; Q 2.84; F 2.86; D 1.33; E 2.44; V 1.17; K 1.46; P 1.72; H 1.59; Y 1.73; G 2.55; S 1.44
V18: R 1.54; H 1.87; N 2.02; I 1.69; W 1.95; K 2.72; L 2.12; D 1.88; T 1.71; Y 1.9; Q 2.34; M 1.75; E 2.78; P 2.5; G 2.12; A 2.04; C 1.92
Q22: C 2.97; W 1.02; H 1.98; K 1.47; E 1.48
K21: F 3.8; P 2.99; G 2.5; S 2.51; C 1.92; N 2.25; H 1.75
Y15: G 1.55; D 2.37; S 2.15; N 2.31; H 1.88; C 1.93; L 3.19; Q 2.61; M 2.54; A 2.57; R 2.67; K 2.62; E 2.9; V 1.69; W 1.67
K2: N 3.62; I 2.81; A 1.89; P 2.62; L 2.62; R 1.4; H 3.23; W 3.22; S 2.44; E 3.43; D 3.15; V 2.04; Q 2.27; Y 1.87
M14: T 1.63; E 2.54; L 2.17; F 1.77; D 3.4; P 3.88; G 2.43; K 1.71; V 1.71; Y 1.25; H 1.87; W 2.02; A 2.25; C 1.98; Q 2.11; I 1.54; S 1.66
M11: H 3.56; E 3.9; A 1.42; V 1.9; R 3.42; I 3.35; C 2.43; N 3.98; T 2.9; K 3.44; D 4.33; F 2.26; Y 2.68; Q 3.2; P 3.85; W 2.22; S 2.37
M5: V 2.2; E 3.67; G 3.53; K 3.05; W 2.11; S 3.08; F 1.79; Y 2.71; D 3.99; L 4.9; C 2.87; T 2.98; A 3.14; H 2.76; N 3.75; P 2.54
S16: L 2.08; Q 1.91; M 2.24; G 2.14; A 2.15; P 2; K 1.7; N 1.98; C 2.1; H 1.41; I 2.62; F 3.1; T 1.56; R 1.36; Y 1.76
Y9: W 2.18; C 2.31; L 2.67; T 3.87; N 4.24; G 3.84; Q 4.41; F 2.26; A 3.9; K 3.57; E 4.34; S 3.9; M 3.43; V 3.1; R 3.84; H 3.61; I 2.02; D 3.83
E19: Q 1.84; R 1.95; Y 1.09; K 1.07; I 1.54; L 1.2; P 1.56; T 1.85; N 1.91; D 1.78; H 2.06; G 1.9; A 2.52
Q3: F 1.97; A 2.15; S 2.35; T 1.85; P 2.85; M 1.51; W 2.53; C 1.42; I 2.17; H 1.69; L 1.75; E 2.3; K 1.96
E6: S 2.47; H 2.21; Q 1.77; G 3.01; C 1.73; W 2.12; M 3.07; F 2.01; A 2.25; I 2.61; R 2.48; V 2.54; T 1.76; N 2.12; K 1.89; D 3.17; P 2.16
F13: M 1.86; G 3.94; N 4.04; C 2.96; A 4.23; R 3.52; V 1.67; D 4.6; H 4.01; Y 2.96; S 4.24; W 1.79; K 3.12; P 3.66
E7: T 1.96; L 1.38; C 1.71; K 2.55; G 2.1; R 2.55; M 1.5; A 2.04; P 2.93; Q 1.86; H 1.7; I 2.35; W 3.34; V 2.97; D 1.68
G17: L 1.49; Q 2.37; Y 1.84; S 1.59; D 1.84; E 1.55; C 2.87; H 2.5; M 1.65; T 1.06; N 1.48
V23: T 1.46; R 1.95; H 1.88; A 1.8; N 2.18; I 2.2; C 1.6; G 1.32; S 1.76; D 1.68; F 1.16; P 1.42; K 1.71; E 1.97
T8: H 2.54; E 2.69; G 1.41; A 1.63; Q 2.19; W 2.71; P 3.46; C 1.52; V 1.89; N 2.42; R 1.84; L 2.67; Y 1.92; I 1.28; K 2.85; S 2.39
V24: A 1.75; W 2.33; D 2.56; T 1.72; E 1.78; L 1.73
I4: C 2.6; K 2.38; R 2.07; L 1.35; P 3.39; N 2.58; Q 2.3; D 2.92; Y 2.48; E 3.46; T 2.9; G 2.89; F 3; A 2.39; S 2.99
A1: P 3.02; K 2.68; L 2.44; S 2.82; T 2.8; Q 2.52; R 2.69; M 1.34; C 1.86; F 1.04; G 2.39; I 1.42; H 2.72; E 3.37; V 2.07
E12: M 2.43; D 2.18; G 2.66; F 1.95; V 1.06; K 1.59; C 1.6; Y 2.44; W 2.48; Q 2.42; H 2.32; P 3.16; N 1.81; R 2.34
K10: T 1.43; R 3.13; L 1.96; F 1.13; G 2.48; S 1.81; V 2.64; M 1.99; C 1.6; E 3.15; W 1.96; D 3.55; A 1.91; H 1.25; Y 2.14; P 3.79; N 1.32; I 1.92
